The results in this text go back to patent publication US20190316150A1.

Assay in all cases: cell-based or functional assay
Assay [1] has as its target T1, GFP-OsJAZ^23 (Oryza sativa).
T1 sequence: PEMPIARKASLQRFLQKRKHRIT

Assay [2] has as its target T2, GFP-AtJAZ^FL (Arabidopsis thaliana) (UniProt Q9LMA8).
T2 sequence: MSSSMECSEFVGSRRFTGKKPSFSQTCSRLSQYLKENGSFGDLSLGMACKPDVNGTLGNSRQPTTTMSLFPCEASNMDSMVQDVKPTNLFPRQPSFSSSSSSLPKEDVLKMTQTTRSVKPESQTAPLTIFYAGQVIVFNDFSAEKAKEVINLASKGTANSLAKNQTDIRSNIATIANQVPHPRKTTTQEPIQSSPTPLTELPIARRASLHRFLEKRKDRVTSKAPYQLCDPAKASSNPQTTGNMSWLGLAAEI

For assay [3], the target named is T3, NLS-GFP-OsJAZ^33 (SV40; Oryza sativa).
T3 sequence: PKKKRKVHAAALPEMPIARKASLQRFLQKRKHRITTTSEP

For assay [4], the target named is OsJAZ^33-p53 (Oryza sativa; human) (UniProt P04637).

B1: OsTIR1^F-box-OsCOI1B^LRR (receptor)
chain: MYPYDVPDYATYFPEEVVEHIFSFLPAQRDRNTVSLVCKVWYEIERLSRKHVTVPFCYAASPAHLLARFPRLESLAVKGKPRAAMYGLIPEDWGAYARPWVAELAAPLECLKALHLRRMVVTDDDLAALVRARGHMLQELKLDKCSGFSTDALRLVARSCRSLRTLFLEECSIADNGTEWLHDLAVNNPVLETLNFHMTELTVVPADLELLAKKCKSLISLKISDCDFSDLIGFFRMAASLQEFAGGAFIEQGELTKYGNVKFPSRLCSLGLTYMGTNEMPIIFPFSALLKKLDLQYTFLTTEDHCQLIAKCPNLLVLAVRNVIGDRGLGVVADTCKKLQRLRVERGDDDPGLQEEQGGVSQVGLTTVAVGCRELEYIAAYVSDITNGALESIGTFCKNLCDFRLVLLDREERITDLPLDNGVRALLRGCTKLRRFALYLRPGGLSDTGLGYIGQYSGIIQYMLLGNVGETDDGLIRFALGCENLRKLELRSCCFSEQALARAIRSMPSLRYVWVQGYKASKTGHDLMLMARPFWNIEFTPPSSENANRMREDGEPCVDSQAQILAYYSLAGKRSDCPRSVVPLYPA
B1 returned a coronatine-dependent GFP degradation, flow cytometry, HEK-293T, pJAZ version 6-Os23 in assay [1] of 90%. The molecule further displayed a coronatine-induced GFP degradation, flow cytometry, HEK-293T, pJAZ version 6-AtFL in assay [2] of 95%. Besides, in assay [3], the coronatine-induced GFP degradation, flow cytometry, HEK-293T, pJAZ version 7 is more than 95%; the coronatine-induced degradation, flow cytometry, several cell types carrying pJAZ and pRAIDRS fell in the range of 90 to 99%. The molecule further registered a coronatine-dependent degradation, western blot quantification, H9 hESCs, 50 µM coronatine 1 day in assay [4] of 90%.
